# Results reported in paper PMC2819690 (The Journal of Cell Biology, 2010).
# Biological target: SNARE (H3) domain of syntaxin-1a (aa 180–262) (rat, UniProt P32851 180-262)
# Assay: assembly of purified monomers and anion-exchange chromatography
# Chain of SNARE (H3) domain of syntaxin-1a (aa 180–262) (P32851 180-262): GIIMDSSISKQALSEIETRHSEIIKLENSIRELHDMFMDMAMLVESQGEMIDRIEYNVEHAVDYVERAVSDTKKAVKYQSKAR
binder,measurement,value
NVDKVLERDQKLSELDDRADALQAGASQFETSAAKLKRKYWWKNLKMM (domain or fragment) [Syb49–96],binding result,binds
